From patent US20190112392A1

Biological target: soluble recombinant cynomolgus TCR alpha/beta-zipper protein (cynomolgus/rhesus monkey)
Test: ELISA, 2 µg/mL coated soluble recombinant cynomolgus TCR α/β-zipper protein, OD 450 nm

soluble recombinant cynomolgus TCR alpha/beta-zipper protein (cynomolgus/rhesus monkey), sequence (TCR alpha, as listed by the source, chain 1 of 2): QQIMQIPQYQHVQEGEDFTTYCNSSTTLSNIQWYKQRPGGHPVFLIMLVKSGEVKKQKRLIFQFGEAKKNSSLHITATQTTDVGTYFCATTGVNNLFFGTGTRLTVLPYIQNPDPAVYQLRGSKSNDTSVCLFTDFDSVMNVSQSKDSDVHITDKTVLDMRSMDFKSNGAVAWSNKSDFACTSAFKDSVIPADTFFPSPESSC
soluble recombinant cynomolgus TCR alpha/beta-zipper protein (cynomolgus/rhesus monkey), sequence (TCR beta, as listed by the source, chain 2 of 2): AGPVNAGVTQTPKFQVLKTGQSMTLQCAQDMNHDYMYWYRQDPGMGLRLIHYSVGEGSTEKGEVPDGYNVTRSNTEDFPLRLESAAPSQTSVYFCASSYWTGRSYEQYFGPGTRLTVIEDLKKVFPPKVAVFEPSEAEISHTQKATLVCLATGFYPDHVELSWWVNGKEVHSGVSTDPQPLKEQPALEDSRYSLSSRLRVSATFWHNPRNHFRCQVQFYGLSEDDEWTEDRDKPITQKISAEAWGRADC

EC50 (read off the curve): 0.1 nM
Substance: anti-non-human primate/Rat TCRα/β antibody clone R73
